In experiment [1] the test system is SARS-CoV-2 gRNA. Format: binding. The note with it: […]; LC-MS/MS; Probe I sample (first 199 lines of Table 2).
The test system of experiment [2] is SARS-CoV-2 gRNA and sgRNAs. The experiment is classed as binding. To be noted: for target (unweighted spectral count in RNP capture): Probe II capture, LC-MS/MS LFQ; for background (unweighted spectral count in control): no-probe control pull-down, used as background for Probe II.

These results are taken from US20230407373A1 (priority 2020, published 2023).

B1: PPP1CB (protein, UniProt P62140 2-327, looked up)
Serine/threonine-protein …: ADGELNVDSLITRLLEVRGCRPGKIVQMTEAEVRGLCIKSREIFLSQPILLELEAPLKICGDIHGQYTDLLRLFEYGGFPPEANYLFLGDYVDRGKQSLETICLLLAYKIKYPENFFLLRGNHECASINRIYGFYDECKRRFNIKLWKTFTDCFNCLPIAAIVDEKIFCCHGGLSPDLQSMEQIRRIMRPTDVPDTGLLCDLLWSDPDKDVQGWGENDRGVSFTFGADVVSKFLNRHDLDLICRAHQVVEDGYEFFAKRQLVTLFSAPNYCGEFDNAGGMMSVDETLMCSFQILKPSEKKAKYQYGGLNSGRPVTPPRTANPPKKR
B1: the “target (unweighted spectral count of the protein in the RNP capture)” value in experiment [1] was found to be 17. Also, in experiment [2], the “target (unweighted spectral count in RNP capture)” value came to 24 and the “background (unweighted spectral count in control)” value (“background” for short) is 4.

B2: HNRNPA1L2 (protein, UniProt Q32P51 1-320, looked up)
Heterogeneous nuclear …: MSKSASPKEPEQLRKLFIGGLSFETTDESLRSHFEQWGTLTDCVVMRDPNTKRSRGFGFVTYATVEEVDAAMNTTPHKVDGRVVEPKRAVSREDSQRPGAHLTVKKIFVGGIKEDTEEHHLRDYFEQYGKIEVIEIMTDRGSGKKRGFAFVTFDDHDSVDKIVIQKYHTVKGHNCEVRKALPKQEMASASSSQRGRRGSGNFGGGRGDGFGGNDNFGRGGNFSGRGGFGGSCGGGGYGGSGDGYNGFGNDGSNFGGGGSYNDFGNYNNQSSNFGPMKGGNFGGRSSGPYGGGGQYFAKPQNQGGYGVSSSSSSYGSGRRF
Regarding B2, the “target (unweighted spectral count of the protein in the RNP capture)” value in experiment [1] was 6. Moreover, in experiment [2], the “target (unweighted spectral count in RNP capture)” value stood at 8 and the “background” value amounted to 1.

B3: TRA2A (protein, UniProt Q13595 2-282, looked up)
Transformer-2 protein homolog …: SDVEENNFEGRESRSQSKSPTGTPARVKSESRSGSRSPSRVSKHSESHSRSRSKSRSRSRRHSHRRYTRSRSHSHSHRRRSRSRSYTPEYRRRRSRSHSPMSNRRRHTGSRANPDPNTCLGVFGLSLYTTERDLREVFSRYGPLSGVNVVYDQRTGRSRGFAFVYFERIDDSKEAMERANGMELDGRRIRVDYSITKRAHTPTPGIYMGRPTHSGGGGGGGGGGGGGGGGRRRDSYYDRGYDRGYDRYEDYDYRYRRRSPSPYYSRYRSRSRSRSYSPRRY
Regarding B3, the “target (unweighted spectral count of the protein in the RNP capture)” value in experiment [1] is 6. Also, in experiment [2], the “target (unweighted spectral count in RNP capture)” value came out at 7 and the “background” value is 1.

B4: MBNL2 (protein, UniProt Q5VZF2 1-373, looked up)
Muscleblind-like protein 2: MALNVAPVRDTKWLTLEVCRQFQRGTCSRSDEECKFAHPPKSCQVENGRVIACFDSLKGRCSRENCKYLHPPTHLKTQLEINGRNNLIQQKTAAAMLAQQMQFMFPGTPLHPVPTFPVGPAIGTNTAISFAPYLAPVTPGVGLVPTEILPTTPVIVPGSPPVTVPGSTATQKLLRTDKLEVCREFQRGNCARGETDCRFAHPADSTMIDTSDNTVTVCMDYIKGRCMREKCKYFHPPAHLQAKIKAAQHQANQAAVAAQAAAAAATVMAFPPGALHPLPKRQALEKSNGTSAVFNPSVLHYQQALTSAQLQQHAAFIPTGSVLCMTPATSIDNSEIISRNGMECQESALRITKHCYCTYYPVSSSIELPQTAC
B4: in experiment [1], the “target (unweighted spectral count of the protein in the RNP capture)” value was found to be 7. Besides, in experiment [2], the “target (unweighted spectral count in RNP capture)” value is recorded as 7 and the “background” value came to 1.
